Sequences and labels used below:
B1: Phage-791 (peptide)
peptide: YCDGHHAEYMWKCL
B2: Phage-822 (peptide)
peptide: YCDGHSPQYLWKCL
B3: Phage-797 (peptide)
peptide: YCDGHELMYMEKCL
B4: Phage-788 (peptide)
peptide: YCDGHIPQYVEKCL
B5: Phage-815 (peptide)
peptide: YCDGHSMTYMAKCI
B6: Phage-778 (peptide)
peptide: YCEGHVPEYLVKCL
B7: Phage-813 (peptide)
peptide: YCAGHSLQYLGKCY
B8: Phage-824 (peptide)
peptide: YCAGHTQEYMLKCL
B9: Phage-785 (peptide)
peptide: YCEGHDIRYMMKCL
B10: Phage-794 (peptide)
peptide: YCDGHSFEYMAKCL
B11: Phage-821 (peptide)
peptide: YCDGHSMEYMAKCL
B12: Phage-784 (peptide)
peptide: YCAGHTPEYLDKCL
B13: Phage-780 (peptide)
peptide: YCDGHLPEYMLKCL
B14: Phage-880 (peptide)
peptide: YCDGHLPEYMEKCL
B15: Phage-798 (peptide)
peptide: YCAGHLEMYMSKCL
B16: Phage-779 (peptide)
peptide: YCDGHSKEYMSKCL
B17: Phage-799 (peptide)
peptide: YCDGHIKEYMSKCL
B18: Phage-819 (peptide)
peptide: YCDGHSGEYMSKCL
B19: Phage-786 (peptide)
peptide: YCDGHEERYMAKCL
B20: Phage-789 (peptide)
peptide: YCAGHAEIYMQKCL
B21: Phage-787 (peptide)
peptide: YCSGHVPEYMEKCL
B22: Phage-793 (peptide)
peptide: YCAGHSAQYMWKCL
B23: Phage-795 (peptide)
peptide: YCDGHSAEYLGKCL
B24: Phage-781 (peptide)
peptide: YCAGHLDVYMSKCL
B25: Phage-814 (peptide)
peptide: YCAGHAAIYMAKCL
B26: Phage-818 (peptide)
peptide: YCEGHLPMYMQKCM
B27: Phage-790 (peptide)
peptide: YCEGHAHEYMEKCV
B28: Phage-816 (peptide)
peptide: YCDGHKWEYLQKCL
B29: Phage-823 (peptide)
peptide: YCAGHSAEYIQKCL
B30: Phage-796 (peptide)
peptide: YCVGHSPEYIWKCL
B31: Phage-820 (peptide)
peptide: YCEGHAREYMDKCL
B32: Phage-792 (peptide)
peptide: YCEGHTQAYLAKCL
B33: Phage-817 (peptide)
peptide: YCDGHDPQYIRKCI

In one assay the target is Anti-CD28 Fab (SEQ ID NOs: 202, 203). In words: phage binding ELISA on captured Fab.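 Also: clonal phage supernatants added briefly to wells pre-incubated with CD28 antigen or with blocking buffer only, then washed, bound phage read by ELISA using HRP-coupled anti-M13 antibody.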 A general note: An ELISA detects its analyte on a solid surface through an enzyme-linked reagent.
Anti-CD28 Fab (SEQ ID NOs: 202, 203), sequence (VH, as listed by the source, chain 1 of 2): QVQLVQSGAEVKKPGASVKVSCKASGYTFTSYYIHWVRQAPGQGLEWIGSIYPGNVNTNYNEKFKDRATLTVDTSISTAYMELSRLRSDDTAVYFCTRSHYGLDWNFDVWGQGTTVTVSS
Anti-CD28 Fab (SEQ ID NOs: 202, 203), sequence (VL, as listed by the source, chain 2 of 2): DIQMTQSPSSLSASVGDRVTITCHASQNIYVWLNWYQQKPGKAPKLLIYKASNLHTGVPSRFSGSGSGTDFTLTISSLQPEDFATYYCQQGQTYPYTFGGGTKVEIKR
Procedure: (§1) Clonal phage were harvested as crude supernatants and screened via standard ELISAs. […] Prior to the addition of clonal phage, wells were incubated with blocking buffer and CD28 antigen or blocking buffer alone. Without washing or aspirating, clonal phage supernatants were then added to the wells and incubated for a short time. Wells were then washed followed by detection of bound phage using a horse radish conjugated anti-M13 antibody.
B1: the “Anti-CD28 Fab (SEQ ID NOs: 202, 203) signal” value stood at 0.93.

With B2, the “Anti-CD28 Fab (SEQ ID NOs: 202, 203) signal” value worked out at 0.8.

Regarding B3, the “Anti-CD28 Fab (SEQ ID NOs: 202, 203) signal” value came to 0.92.

Take B4: the “Anti-CD28 Fab (SEQ ID NOs: 202, 203) signal” value was 0.94.

On to B5, for which the “Anti-CD28 Fab (SEQ ID NOs: 202, 203) signal” value stood at 0.84.

Consider B6, for which the “Anti-CD28 Fab (SEQ ID NOs: 202, 203) signal” value was found to be 0.96.

Regarding B7, the “Anti-CD28 Fab (SEQ ID NOs: 202, 203) signal” value turned out to be 0.86.

As for B8, the “Anti-CD28 Fab (SEQ ID NOs: 202, 203) signal” value turned out to be 0.78.

Take B9: the “Anti-CD28 Fab (SEQ ID NOs: 202, 203) signal” value turned out to be 0.95.

For B10, the “Anti-CD28 Fab (SEQ ID NOs: 202, 203) signal” value was 0.92.

Consider B11, for which the “Anti-CD28 Fab (SEQ ID NOs: 202, 203) signal” value came out at 0.8.

As for B12, the “Anti-CD28 Fab (SEQ ID NOs: 202, 203) signal” value came to 0.95.

For B13, the “Anti-CD28 Fab (SEQ ID NOs: 202, 203) signal” value turned out to be 0.96.

Regarding B14, the “Anti-CD28 Fab (SEQ ID NOs: 202, 203) signal” value was 0.43.

Take B15: the “Anti-CD28 Fab (SEQ ID NOs: 202, 203) signal” value came out at 0.91.

For B16, the “Anti-CD28 Fab (SEQ ID NOs: 202, 203) signal” value stood at 0.96.

As to B17, the “Anti-CD28 Fab (SEQ ID NOs: 202, 203) signal” value is 0.91.

Regarding B18, the “Anti-CD28 Fab (SEQ ID NOs: 202, 203) signal” value was 0.82.

Regarding B19, the “Anti-CD28 Fab (SEQ ID NOs: 202, 203) signal” value was determined as 0.94.

Take B20: the “Anti-CD28 Fab (SEQ ID NOs: 202, 203) signal” value turned out to be 0.93.

B21: the “Anti-CD28 Fab (SEQ ID NOs: 202, 203) signal” value was found to be 0.94.

For B22, the “Anti-CD28 Fab (SEQ ID NOs: 202, 203) signal” value was 0.92.

As for B23, the “Anti-CD28 Fab (SEQ ID NOs: 202, 203) signal” value was 0.92.

In the case of B24, the “Anti-CD28 Fab (SEQ ID NOs: 202, 203) signal” value was determined as 0.96.

As for B25, the “Anti-CD28 Fab (SEQ ID NOs: 202, 203) signal” value was 0.85.

B26: the “Anti-CD28 Fab (SEQ ID NOs: 202, 203) signal” value was 0.82.

B27: the “Anti-CD28 Fab (SEQ ID NOs: 202, 203) signal” value was 0.93.

As to B28, the “Anti-CD28 Fab (SEQ ID NOs: 202, 203) signal” value turned out to be 0.84.

B29: the “Anti-CD28 Fab (SEQ ID NOs: 202, 203) signal” value was 0.8.

For the molecule B30, the “Anti-CD28 Fab (SEQ ID NOs: 202, 203) signal” value came to 0.92.

Turning to B31, the “Anti-CD28 Fab (SEQ ID NOs: 202, 203) signal” value was 0.8.

B32: the “Anti-CD28 Fab (SEQ ID NOs: 202, 203) signal” value is 0.93.

For the molecule B33, the “Anti-CD28 Fab (SEQ ID NOs: 202, 203) signal” value amounted to 0.83.

The target is the same in a further assay. Description: phage binding ELISA on captured Fab, competitor CD28 antigen.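 Also: clonal phage supernatant binding in wells preincubated with CD28 antigen in blocking buffer, detected by HRP-conjugated anti-M13 antibody ELISA, compared with blocking buffer alone.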
Procedure: as §1
Consider B1, for which the “Anti-CD28 Fab signal in the presence of CD28” value (from here on “Anti-CD28 Fab signal”) was found to be 0.06.

As for B2, the “Anti-CD28 Fab signal” value was 0.05.

As for B3, the “Anti-CD28 Fab signal” value was found to be 0.06.

In the case of B4, the “Anti-CD28 Fab signal” value turned out to be 0.08.

B5: the “Anti-CD28 Fab signal” value was 0.06.

Take B6: the “Anti-CD28 Fab signal” value turned out to be 0.06.

For the molecule B7, the “Anti-CD28 Fab signal” value was determined as 0.06.

As to B8, the “Anti-CD28 Fab signal” value was found to be 0.06.

Take B9: the “Anti-CD28 Fab signal” value turned out to be 0.08.

For the molecule B10, the “Anti-CD28 Fab signal” value amounted to 0.06.

Regarding B11, the “Anti-CD28 Fab signal” value worked out at 0.07.

For the molecule B12, the “Anti-CD28 Fab signal” value came to 0.06.

On to B13, for which the “Anti-CD28 Fab signal” value was determined as 0.09.

On to B14, for which the “Anti-CD28 Fab signal” value is 0.07.

Take B15: the “Anti-CD28 Fab signal” value stood at 0.07.

Turning to B16, the “Anti-CD28 Fab signal” value amounted to 0.07.

As for B17, the “Anti-CD28 Fab signal” value was 0.08.

Consider B18, for which the “Anti-CD28 Fab signal” value was determined as 0.06.

In the case of B19, the “Anti-CD28 Fab signal” value turned out to be 0.06.

Turning to B20, the “Anti-CD28 Fab signal” value was 0.05.

For the molecule B21, the “Anti-CD28 Fab signal” value is 0.06.

Turning to B22, the “Anti-CD28 Fab signal” value came out at 0.07.

Regarding B23, the “Anti-CD28 Fab signal” value came out at 0.07.

For the molecule B24, the “Anti-CD28 Fab signal” value was found to be 0.09.

On to B25, for which the “Anti-CD28 Fab signal” value amounted to 0.07.

As to B26, the “Anti-CD28 Fab signal” value was found to be 0.07.

As to B27, the “Anti-CD28 Fab signal” value was determined as 0.07.

In the case of B28, the “Anti-CD28 Fab signal” value was determined as 0.06.

B29: the “Anti-CD28 Fab signal” value was determined as 0.08.

Take B30: the “Anti-CD28 Fab signal” value is 0.06.

As to B31, the “Anti-CD28 Fab signal” value amounted to 0.07.

As to B32, the “Anti-CD28 Fab signal” value was 0.1.

As for B33, the “Anti-CD28 Fab signal” value was 0.06.
